Assay results: the supplement of paper PMC9112550, “Optimization of the antimicrobial peptide Bac7 by deep mutational scanning” (BMC Biology, 2022)

test system: Escherichia coli TOP10; assay: shrunken log2 fold change of peptide-encoding DNA abundance (4.5 h post-induction vs induction); higher = less antimicrobial activity (less host growth inhibition); conditions: time post-induction: 4.5 h; library: site-saturation at positions 5, 18, 19, 20
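Note: peptides expressed intracellularly from a pBAD plasmid library in pooled LB shake-flask culture, induced with 0.3% L-arabinose, DNA abundance read by NGS, three biological replicates, DESeq2 with apeglm shrinkage.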

Row | Sequence | shrunken log2 fold change
1 | RRIRGRPPRLPRPRPRPGFCPRP | 0.925
2 | RRIRGRPPRLPRPRPRPGFKPRP | 0.354
3 | RRIRGRPPRLPRPRPRPGFNPRP | 0.235
4 | RRIRGRPPRLPRPRPRPGFQPRP | 0.157
5 | RRIRGRPPRLPRPRPRPGFYPRP | 0.512
6 | RRIRGRPPRLPRPRPRPGGFPRP | 0.819
7 | RRIRGRPPRLPRPRPRPGHCPRP | 0.4
8 | RRIRGRPPRLPRPRPRPGHNPRP | 0.0636
9 | RRIRGRPPRLPRPRPRPGIEPRP | 0.118
10 | RRIRGRPPRLPRPRPRPGIQPRP | 0.591
11 | RRIRGRPPRLPRPRPRPGIVPRP | 0.957
12 | RRIRGRPPRLPRPRPRPGLDPRP | 1.24
13 | RRIRGRPPRLPRPRPRPGMEPRP | 1.54
14 | RRIRGRPPRLPRPRPRPGNFPRP | -0.00767
15 | RRIRGRPPRLPRPRPRPGNQPRP | -0.0828
16 | RRIRGRPPRLPRPRPRPGNRPRP | 0.333
17 | RRIRGRPPRLPRPRPRPGNTPRP | 0.171
18 | RRIRGRPPRLPRPRPRPGPLPRP | 0.363
19 | RRIRGRPPRLPRPRPRPGQPPRP | 0.462
20 | RRIRGRPPRLPRPRPRPGRRPRP | 0.849
21 | RRIRGRPPRLPRPRPRPGSKPRP | 0.0737
22 | RRIRGRPPRLPRPRPRPGSTPRP | 0.75
23 | RRIRGRPPRLPRPRPRPGSYPRP | -0.242
24 | RRIRGRPPRLPRPRPRPGTCPRP | 0.165
25 | RRIRGRPPRLPRPRPRPGTDPRP | 0.472

Row | Sequence | shrunken log2 fold change
26 | RRIRGRPPRLPRPRPRPGTQPRP | 0.143
27 | RRIRGRPPRLPRPRPRPGVNPRP | 0.075
28 | RRIRGRPPRLPRPRPRPGWVPRP | 0.892
29 | RRIRGRPPRLPRPRPRPGYHPRP | 0.0713
30 | RRIRGRPPRLPRPRPRPHAMPRP | 0.171
31 | RRIRGRPPRLPRPRPRPHASPRP | 0.585
32 | RRIRGRPPRLPRPRPRPHCDPRP | 3.63
33 | RRIRGRPPRLPRPRPRPHCEPRP | 0.22
34 | RRIRGRPPRLPRPRPRPHCTPRP | -0.0815
35 | RRIRGRPPRLPRPRPRPHDDPRP | 0.0376
36 | RRIRGRPPRLPRPRPRPHDGPRP | 0.0288
37 | RRIRGRPPRLPRPRPRPHERPRP | 0.878
38 | RRIRGRPPRLPRPRPRPHFCPRP | 0.117
39 | RRIRGRPPRLPRPRPRPHFNPRP | 0.232
40 | RRIRGRPPRLPRPRPRPHFYPRP | 0.324
41 | RRIRGRPPRLPRPRPRPHGRPRP | 0.182
42 | RRIRGRPPRLPRPRPRPHHGPRP | 0.0719
43 | RRIRGRPPRLPRPRPRPHIAPRP | 2.17
44 | RRIRGRPPRLPRPRPRPHIEPRP | 1.15
45 | RRIRGRPPRLPRPRPRPHKDPRP | 0.11
46 | RRIRGRPPRLPRPRPRPHLVPRP | 0.294
47 | RRIRGRPPRLPRPRPRPHMGPRP | 0.121
48 | RRIRGRPPRLPRPRPRPHNEPRP | 0.264
49 | RRIRGRPPRLPRPRPRPHNKPRP | -0.09
50 | RRIRGRPPRLPRPRPRPHNYPRP | -0.248

Row | Sequence | shrunken log2 fold change
51 | RRIRGRPPRLPRPRPRPHPYPRP | 0.0786
52 | RRIRGRPPRLPRPRPRPHQMPRP | 0.532
53 | RRIRGRPPRLPRPRPRPHSEPRP | 0.194
54 | RRIRGRPPRLPRPRPRPHTHPRP | 0.0537
55 | RRIRGRPPRLPRPRPRPHTIPRP | 0.151
56 | RRIRGRPPRLPRPRPRPHVCPRP | 0.359
57 | RRIRGRPPRLPRPRPRPHVKPRP | -0.0605
58 | RRIRGRPPRLPRPRPRPHVTPRP | 0.00976
59 | RRIRGRPPRLPRPRPRPHWGPRP | 0.247
60 | RRIRGRPPRLPRPRPRPHWHPRP | 0.0418
61 | RRIRGRPPRLPRPRPRPHWIPRP | -0.304
62 | RRIRGRPPRLPRPRPRPIDGPRP | 0.245
63 | RRIRGRPPRLPRPRPRPIETPRP | 0.312
64 | RRIRGRPPRLPRPRPRPIGFPRP | 0.061
65 | RRIRGRPPRLPRPRPRPIHVPRP | -0.315
66 | RRIRGRPPRLPRPRPRPIICPRP | 0.026
67 | RRIRGRPPRLPRPRPRPIIGPRP | -0.0822
68 | RRIRGRPPRLPRPRPRPIIKPRP | 0.237
69 | RRIRGRPPRLPRPRPRPIISPRP | 0.507
70 | RRIRGRPPRLPRPRPRPIKEPRP | -0.104
71 | RRIRGRPPRLPRPRPRPIKSPRP | 0.326
72 | RRIRGRPPRLPRPRPRPILIPRP | 0.191
73 | RRIRGRPPRLPRPRPRPILMPRP | -0.05
74 | RRIRGRPPRLPRPRPRPIPCPRP | 0.184
75 | RRIRGRPPRLPRPRPRPIPLPRP | 0.16

Row | Sequence | shrunken log2 fold change
76 | RRIRGRPPRLPRPRPRPIPQPRP | 0.358
77 | RRIRGRPPRLPRPRPRPIPRPRP | 0.519
78 | RRIRGRPPRLPRPRPRPIPTPRP | 0.00615
79 | RRIRGRPPRLPRPRPRPIQWPRP | 0.325
80 | RRIRGRPPRLPRPRPRPIRDPRP | 0.0394
81 | RRIRGRPPRLPRPRPRPISEPRP | 0.0792
82 | RRIRGRPPRLPRPRPRPISLPRP | -0.228
83 | RRIRGRPPRLPRPRPRPITHPRP | 0.0909
84 | RRIRGRPPRLPRPRPRPIVMPRP | -0.0978
85 | RRIRGRPPRLPRPRPRPIVNPRP | 0.187
86 | RRIRGRPPRLPRPRPRPIVWPRP | 0.381
87 | RRIRGRPPRLPRPRPRPIYCPRP | 0.112
88 | RRIRGRPPRLPRPRPRPKAHPRP | 0.625
89 | RRIRGRPPRLPRPRPRPKAIPRP | 0.363
90 | RRIRGRPPRLPRPRPRPKARPRP | 0.208
91 | RRIRGRPPRLPRPRPRPKDFPRP | -0.0214
92 | RRIRGRPPRLPRPRPRPKEMPRP | 0.5
93 | RRIRGRPPRLPRPRPRPKHCPRP | 0.216
94 | RRIRGRPPRLPRPRPRPKICPRP | -0.0723
95 | RRIRGRPPRLPRPRPRPKIDPRP | 0.372
96 | RRIRGRPPRLPRPRPRPKIQPRP | 0.369
97 | RRIRGRPPRLPRPRPRPKKHPRP | 0.655
98 | RRIRGRPPRLPRPRPRPKLPPRP | 0.821
99 | RRIRGRPPRLPRPRPRPKLSPRP | -0.0523
100 | RRIRGRPPRLPRPRPRPKMCPRP | 0.102

Row | Sequence | shrunken log2 fold change
101 | RRIRGRPPRLPRPRPRPKNIPRP | -0.101
102 | RRIRGRPPRLPRPRPRPKQCPRP | 0.103
103 | RRIRGRPPRLPRPRPRPKQTPRP | 0.175
104 | RRIRGRPPRLPRPRPRPKSEPRP | 0.9
105 | RRIRGRPPRLPRPRPRPKSIPRP | -0.0446
106 | RRIRGRPPRLPRPRPRPKTRPRP | 0.884
107 | RRIRGRPPRLPRPRPRPKVCPRP | 0.232
108 | RRIRGRPPRLPRPRPRPKVQPRP | 1.06
109 | RRIRGRPPRLPRPRPRPKWHPRP | 0.542
110 | RRIRGRPPRLPRPRPRPKWWPRP | 1.13
111 | RRIRGRPPRLPRPRPRPKYHPRP | 0.00515
112 | RRIRGRPPRLPRPRPRPLAEPRP | 2.89
113 | RRIRGRPPRLPRPRPRPLAIPRP | 0.567
114 | RRIRGRPPRLPRPRPRPLATPRP | 2.95
115 | RRIRGRPPRLPRPRPRPLCIPRP | 0.366
116 | RRIRGRPPRLPRPRPRPLEAPRP | 1.44
117 | RRIRGRPPRLPRPRPRPLFDPRP | 0.548
118 | RRIRGRPPRLPRPRPRPLFIPRP | -0.234
119 | RRIRGRPPRLPRPRPRPLFKPRP | 0.337
120 | RRIRGRPPRLPRPRPRPLFPPRP | 0.406
121 | RRIRGRPPRLPRPRPRPLFQPRP | 0.266
122 | RRIRGRPPRLPRPRPRPLGMPRP | 0.575
123 | RRIRGRPPRLPRPRPRPLHDPRP | 0.748
124 | RRIRGRPPRLPRPRPRPLHGPRP | 0.212
125 | RRIRGRPPRLPRPRPRPLHPPRP | 0.697

Row | Sequence | shrunken log2 fold change
126 | RRIRGRPPRLPRPRPRPLIDPRP | 1.36
127 | RRIRGRPPRLPRPRPRPLMDPRP | 1.04
128 | RRIRGRPPRLPRPRPRPLMYPRP | -0.00226
129 | RRIRGRPPRLPRPRPRPLNHPRP | 0.0752
130 | RRIRGRPPRLPRPRPRPLPMPRP | 0.666
131 | RRIRGRPPRLPRPRPRPLPVPRP | 0.572
132 | RRIRGRPPRLPRPRPRPLRWPRP | 1.33
133 | RRIRGRPPRLPRPRPRPLSLPRP | 0.419
134 | RRIRGRPPRLPRPRPRPLSQPRP | 0.872
135 | RRIRGRPPRLPRPRPRPLSTPRP | 1.13
136 | RRIRGRPPRLPRPRPRPLTEPRP | 1.22
137 | RRIRGRPPRLPRPRPRPLTNPRP | 0.364
138 | RRIRGRPPRLPRPRPRPLVAPRP | 1.16
139 | RRIRGRPPRLPRPRPRPLVHPRP | -0.0335
140 | RRIRGRPPRLPRPRPRPLWPPRP | 0.836
141 | RRIRGRPPRLPRPRPRPLWSPRP | 0.117
142 | RRIRGRPPRLPRPRPRPMAKPRP | 0.658
143 | RRIRGRPPRLPRPRPRPMASPRP | 0.176
144 | RRIRGRPPRLPRPRPRPMCDPRP | 1.07
145 | RRIRGRPPRLPRPRPRPMEPPRP | 0.245
146 | RRIRGRPPRLPRPRPRPMFGPRP | 0.39
147 | RRIRGRPPRLPRPRPRPMFTPRP | 0.522
148 | RRIRGRPPRLPRPRPRPMGYPRP | 0.111
149 | RRIRGRPPRLPRPRPRPMHYPRP | -0.165
150 | RRIRGRPPRLPRPRPRPMILPRP | -0.0452
